Columns and labels:
[1] = system: 43-mer covering the stalk region of CD95L (residue 103 to residue 145)
[2] = system: Recombinant Ig-CD95L
Recombinant Ig-CD95L, sequence (chain, as listed by the source): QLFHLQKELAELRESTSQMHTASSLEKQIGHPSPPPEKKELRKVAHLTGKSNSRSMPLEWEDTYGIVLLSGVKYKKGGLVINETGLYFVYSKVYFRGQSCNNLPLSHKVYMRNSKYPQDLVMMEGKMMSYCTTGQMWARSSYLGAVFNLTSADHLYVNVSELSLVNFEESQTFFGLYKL

MMP3, sequence (chain, as listed by the source): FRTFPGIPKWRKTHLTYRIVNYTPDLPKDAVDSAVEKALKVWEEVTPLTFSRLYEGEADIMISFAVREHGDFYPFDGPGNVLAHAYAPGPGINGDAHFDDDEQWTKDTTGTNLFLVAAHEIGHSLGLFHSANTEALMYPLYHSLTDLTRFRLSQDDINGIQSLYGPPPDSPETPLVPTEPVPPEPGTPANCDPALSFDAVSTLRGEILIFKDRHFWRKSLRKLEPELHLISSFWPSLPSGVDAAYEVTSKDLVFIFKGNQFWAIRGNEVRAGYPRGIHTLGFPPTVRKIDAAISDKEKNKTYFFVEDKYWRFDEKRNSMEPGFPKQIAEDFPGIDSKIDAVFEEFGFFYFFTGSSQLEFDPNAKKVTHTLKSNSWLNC
43-mer covering the stalk region of CD95L (residue 103 to residue 145), sequence (chain, as listed by the source): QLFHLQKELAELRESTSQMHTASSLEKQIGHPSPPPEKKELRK

MMP3
percentage of degradation of the 43-mer (LC-MS/MS) [1]: more of 20% of cleavage
cleavage of Ig-CD95L (western blotting) [2]: Using this Ig-CD95L, we showed that MMP2 and MMP3 can cleave CD95L

Reference: patent US20250163169
